In article doi:10.1101/2021.03.25.436940:

Target: T1, OsGSTU5 (Oryza sativa, UniProt Q0J294 6-233)
T1 sequence: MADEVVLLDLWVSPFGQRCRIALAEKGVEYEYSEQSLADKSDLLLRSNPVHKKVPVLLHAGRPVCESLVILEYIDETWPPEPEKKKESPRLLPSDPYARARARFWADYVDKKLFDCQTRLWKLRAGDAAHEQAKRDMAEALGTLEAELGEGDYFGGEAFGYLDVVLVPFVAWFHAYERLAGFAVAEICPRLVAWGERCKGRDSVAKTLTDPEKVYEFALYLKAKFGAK
Test: EMSA

B1: 39-nt experimental oligo (ssDNA) (ssDNA)
DNA: GCGGTGGAAGTAGCAACAGCGGTTCTAGCGGCAGCGGCG
B1: no binding.
